Test results: ChEMBL document CHEMBL1140936, “Topological polar surface area defines substrate transport by multidrug resistance associated protein 1 (MRP1/ABCC1)” (J Med Chem, 2009)

What was measured:
[1] = substrate: N[C@@H](CCC(=O)N[C@@H](CS)C(=O)NCC(=O)O)C(=O)O; assay: not read
[2] = substrate: N[C@@H](CCC(=O)N[C@@H](CSSC[C@H](NC(=O)CC[C@H](N)C(=O)O)C(=O)NCC(=O)O)C(=O)NCC(=O)O)C(=O)O; assay: Activity of MRP1

B1: Multidrug resistance-associated protein 1 (Homo sapiens) (protein)
chain: MALRGFCSADGSDPLWDWNVTWNTSNPDFTKCFQNTVLVWVPCFYLWACFPFYFLYLSRHDRGYIQMTPLNKTKTALGFLLWIVCWADLFYSFWERSRGIFLAPVFLVSPTLLGITMLLATFLIQLERRKGVQSSGIMLTFWLVALVCALAILRSKIMTALKEDAQVDLFRDITFYVYFSLLLIQLVLSCFSDRSPLFSETIHDPNPCPESSASFLSRITFWWITGLIVRGYRQPLEGSDLWSLNKEDTSEQVVPVLVKNWKKECAKTRKQPVKVVYSSKDPAQPKESSKVDANEEVEALIVKSPQKEWNPSLFKVLYKTFGPYFLMSFFFKAIHDLMMFSGPQILKLLIKFVNDTKAPDWQGYFYTVLLFVTACLQTLVLHQYFHICFVSGMRIKTAVIGAVYRKALVITNSARKSSTVGEIVNLMSVDAQRFMDLATYINMIWSAPLQVILALYLLWLNLGPSVLAGVAVMVLMVPVNAVMAMKTKTYQVAHMKSKDNRIKLMNEILNGIKVLKLYAWELAFKDKVLAIRQEELKVLKKSAYLSAVGTFTWVCTPFLVALCTFAVYVTIDENNILDAQTAFVSLALFNILRFPLNILPMVISSIVQASVSLKRLRIFLSHEELEPDSIERRPVKDGGGTNSITVRNATFTWARSDPPTLNGITFSIPEGALVAVVGQVGCGKSSLLSALLAEMDKVEGHVAIKGSVAYVPQQAWIQNDSLRENILFGCQLEEPYYRSVIQACALLPDLEILPSGDRTEIGEKGVNLSGGQKQRVSLARAVYSNADIYLFDDPLSAVDAHVGKHIFENVIGPKGMLKNKTRILVTHSMSYLPQVDVIIVMSGGKISEMGSYQELLARDGAFAEFLRTYASTEQEQDAEENGVTGVSGPGKEAKQMENGMLVTDSAGKQLQRQLSSSSSYSGDISRHHNSTAELQKAEAKKEETWKLMEADKAQTGQVKLSVYWDYMKAIGLFISFLSIFLFMCNHVSALASNYWLSLWTDDPIVNGTQEHTKVRLSVYGALGISQGIAVFGYSMAVSIGGILASRCLHVDLLHSILRSPMSFFERTPSGNLVNRFSKELDTVDSMIPEVIKMFMGSLFNVIGACIVILLATPIAAIIIPPLGLIYFFVQRFYVASSRQLKRLESVSRSPVYSHFNETLLGVSVIRAFEEQERFIHQSDLKVDENQKAYYPSIVANRWLAVRLECVGNCIVLFAALFAVISRHSLSAGLVGLSVSYSLQVTTYLNWLVRMSSEMETNIVAVERLKEYSETEKEAPWQIQETAPPSSWPQVGRVEFRNYCLRYREDLDFVLRHINVTINGGEKVGIVGRTGAGKSSLTLGLFRINESAEGEIIIDGINIAKIGLHDLRFKITIIPQDPVLFSGSLRMNLDPFSQYSDEEVWTSLELAHLKDFVSALPDKLDHECAEGGENLSVGQRQLVCLARALLRKTKILVLDEATAAVDLETDDLIQSTIRTQFEDCTVLTIAHRLNTIMDYTRVIVLDKGEIQEYGAPSDLLQQRGLFYSMAKDAGLV
- Km [1]: 5000 µM
- Km [2]: 93 µM
